B1: Onartuzumab-23E (antibody)
heavy: EVQLVESGGGLVQPGGSLRLSCAASGYTFTSYWLHWVRQAPGKGLEWVGMIDPSNSDTRFNPNFKDRFTISADTSKNTAYLQMNSLRAEDTAVYYCATYRSYVTPLDYWGQGTLVTVSSASTKGPSVFPLAPSSKSTSGGTAALGCLVKDYFPEPVTVSWNSGALTSGVHTFPAVLQSSGLYSLSSVVTVPSSSLGTQTYICNVNHKPSNTKVDKKVEPKSCDKTHTCPPCPAPELLGGPSVFLFPPKPKDTLMISRTPEVTCVVVDVSHEDPEVKFNWYVDGVEVHNAKTKPREEQYQSTYRVVSVLTVLHQDWLNGKEYKCKVSNKALPAPIEKTISKAKGQPREPQVYTLPPSREEMTKNQVSLSCAVKGFYPSDIAVEWESNGQPENNYKTTPPVLDSDGSFFLVSKLTVDKSRWQQGNVFSCSVMHEALHNHYTQKSLSLSKSCDKTGGGGSGGGGSGGGGSGGGGSGGGGSGGGGSGGGGSGGGGSCPPCPAPELLGGPSVFLFPPKPKDTLMISRTPEVTCVVVDVSHEDPEVKFNWYVDGVEVHNAKTKPREEQYQSTYRVVSVLTVLHQDWLNGKEYKCKVSNKALPAPIEKTISKAKGQPREPQVYTLPPSREEMTKNQVSLWCLVKGFYPSDIAVEWESNGQPENNYKTTPPVLDSDGSFFLYSKLTVDKSRWQQGNVFSCSVMHEALHNHYTQKSLSLSGEC
light: DIQMTQSPSSLSASVGDRVTITCKSSQSLLYTSSQKNYLAWYQQKPGKAPKLLIYWASTRESGVPSRFSGSGSGTDFTLTISSLQPEDFATYYCQQYYAYPWTFGQGTKVEIKRTVAAPSVFIFPPSDEQLKSGTASVVCLLNNFYPREAKVQWKVDNALQSGNSQESVTEQDSKDSTYSLSSTLTLSKADYEKHKVYACEVTHQGLSSPVTKSFNRGEC
notes: Monovalent tandem Fc antibody: onartuzumab anti-c-Met Fab on IgG1 TFc 23E
B2: Onartuzumab-39EGY4-2224 (bispecific antibody)
heavy: EVQLVESGGGLVQPGGSLRLSCAASGYTFTSYWLHWVRQAPGKGLEWVGMIDPSNSDTRFNPNFKDRFTISADTSKNTAYLQMNSLRAEDTAVYYCATYRSYVTPLDYWGQGTLVTVSSASTKGPSVFPLAPSSKSTSGGTAALGCLVKDYFPEPVTVSWNSGALTSGVHTFPAVLQSSGLYSLSSVVTVPSSSLGTQTYICNVNHKPSNTKVDKKVEPKSCDKTHTCPSCPAPEFLGGPSVFLFPPKPKDTLMISRTPEVTCVVVDVSQEDPEVQFNWYVDGVEVHNAKTKPREEQFNSKYRVVSVLTVLHQDWLNGKEYKCKVSNKGLPSSIEKTISKAKGQPREPQVYTLPPSREEMTKNQVSLSCAVKGFYPSDIAVEWESNGQPENNYKTTPPVLDSDGSFFLVSKLTVDKSRWQQGNVFSCSVMHEALHNHYTQKSLSLSKSCDKTGGGGSGGGGSGGGGSGGGGSGGGGSGGGGSGGGGSGGGGSCPSCPAPEFLGGPSVFLFPPKPKDTLMISRTPEVTCVVVDVSQEDPEVQFNWYVDGVEVHNAKTKPREEQFNSDYRVVSVLTVLHQDWLNGKEYKCKVSNKGLPSSIEKTISKAKGQPREPQVYTLPPSREEMTKNQVSLWCLVKGFYPSDIAVEWESNGQPENNYKTTPPVLDSDGSFFLYSKLTVDKSRWQQGNVFSCSVMHEALHNHYTQKSLSLSGECGGGGSGGGGSEVQLVQSGAEVKKPGSSVKVSCKASGGTFSSYAIGWVRQAPGQGLEWMGGIIPIFGIANYAQKFQGRVTITADESTSSAYMELSSLRSEDTAVYYCAREEGPYCSSTSCYAAFDIWGQGTLVTVSSASTGGGGSGGGGSGGGGSGGGGSQSVLTQDPAVSVALGQTVKITCQGDSLRSYFASWYQQKPGQAPTLVMYARNDRPAGVPDRFSGSKSGTSASLAISGLQPEDEADYYCAAWDDSLNGYLFGAGTKLTVL
light: DIQMTQSPSSLSASVGDRVTITCKSSQSLLYTSSQKNYLAWYQQKPGKAPKLLIYWASTRESGVPSRFSGSGSGTDFTLTISSLQPEDFATYYCQQYYAYPWTFGQGTKVEIKRTVAAPSVFIFPPSDEQLKSGTASVVCLLNNFYPREAKVQWKVDNALQSGNSQESVTEQDSKDSTYSLSSTLTLSKADYEKHKVYACEVTHQGLSSPVTKSFNRGEC
notes: Anti-c-Met Fab / TFc 39E glycoform 4 / anti-EGFR 2224 scFv; also called Onartuzumab-39EGY4-224; onartuzumab-39Egy-2224
B3: Onartuzumab-39 (antibody)
heavy: EVQLVESGGGLVQPGGSLRLSCAASGYTFTSYWLHWVRQAPGKGLEWVGMIDPSNSDTRFNPNFKDRFTISADTSKNTAYLQMNSLRAEDTAVYYCATYRSYVTPLDYWGQGTLVTVSSASTKGPSVFPLAPSSKSTSGGTAALGCLVKDYFPEPVTVSWNSGALTSGVHTFPAVLQSSGLYSLSSVVTVPSSSLGTQTYICNVNHKPSNTKVDKKVEPKSCDKTHTCPSCPAPEFLGGPSVFLFPPKPKDTLMISRTPEVTCVVVDVSQEDPEVQFNWYVDGVEVHNAKTKPREEQFNSKYRVVSVLTVLHQDWLNGKEYKCKVSNKGLPSSIEKTISKAKGQPREPQVYTLPPSREEMTKNQVSLSCAVKGFYPSDIAVEWESNGQPENNYKTTPPVLDSDGSFFLVSKLTVDKSRWQQGNVFSCSVMHEALHNHYTQKSLSLSPGKGGGGSGGGGSGGGGSGGGGSGGGGSGGGGSGGGGSGGGGSCPSCPAPEFLGGPSVFLFPPKPKDTLMISRTPEVTCVVVDVSQEDPEVQFNWYVDGVEVHNAKTKPREEQFNSKYRVVSVLTVLHQDWLNGKEYKCKVSNKGLPSSIEKTISKAKGQPREPQVYTLPPSREEMTKNQVSLWCLVKGFYPSDIAVEWESNGQPENNYKTTPPVLDSDGSFFLYSKLTVDKSRWQQGNVFSCSVMHEALHNHYTQKSLSLSPGK
light: DIQMTQSPSSLSASVGDRVTITCKSSQSLLYTSSQKNYLAWYQQKPGKAPKLLIYWASTRESGVPSRFSGSGSGTDFTLTISSLQPEDFATYYCQQYYAYPWTFGQGTKVEIKRTVAAPSVFIFPPSDEQLKSGTASVVCLLNNFYPREAKVQWKVDNALQSGNSQESVTEQDSKDSTYSLSSTLTLSKADYEKHKVYACEVTHQGLSSPVTKSFNRGEC
notes: Monovalent tandem Fc antibody: onartuzumab anti-c-Met Fab on IgG1/IgG4 hybrid TFc 39
B4: Onartuzumab-39EGY4 (antibody)
heavy: EVQLVESGGGLVQPGGSLRLSCAASGYTFTSYWLHWVRQAPGKGLEWVGMIDPSNSDTRFNPNFKDRFTISADTSKNTAYLQMNSLRAEDTAVYYCATYRSYVTPLDYWGQGTLVTVSSASTKGPSVFPLAPSSKSTSGGTAALGCLVKDYFPEPVTVSWNSGALTSGVHTFPAVLQSSGLYSLSSVVTVPSSSLGTQTYICNVNHKPSNTKVDKKVEPKSCDKTHTCPSCPAPEFLGGPSVFLFPPKPKDTLMISRTPEVTCVVVDVSQEDPEVQFNWYVDGVEVHNAKTKPREEQFNSKYRVVSVLTVLHQDWLNGKEYKCKVSNKGLPSSIEKTISKAKGQPREPQVYTLPPSREEMTKNQVSLSCAVKGFYPSDIAVEWESNGQPENNYKTTPPVLDSDGSFFLVSKLTVDKSRWQQGNVFSCSVMHEALHNHYTQKSLSLSKSCDKTGGGGSGGGGSGGGGSGGGGSGGGGSGGGGSGGGGSGGGGSCPSCPAPEFLGGPSVFLFPPKPKDTLMISRTPEVTCVVVDVSQEDPEVQFNWYVDGVEVHNAKTKPREEQFNSDYRVVSVLTVLHQDWLNGKEYKCKVSNKGLPSSIEKTISKAKGQPREPQVYTLPPSREEMTKNQVSLWCLVKGFYPSDIAVEWESNGQPENNYKTTPPVLDSDGSFFLYSKLTVDKSRWQQGNVFSCSVMHEALHNHYTQKSLSLSGEC
light: DIQMTQSPSSLSASVGDRVTITCKSSQSLLYTSSQKNYLAWYQQKPGKAPKLLIYWASTRESGVPSRFSGSGSGTDFTLTISSLQPEDFATYYCQQYYAYPWTFGQGTKVEIKRTVAAPSVFIFPPSDEQLKSGTASVVCLLNNFYPREAKVQWKVDNALQSGNSQESVTEQDSKDSTYSLSSTLTLSKADYEKHKVYACEVTHQGLSSPVTKSFNRGEC
notes: Monovalent tandem Fc antibody: onartuzumab anti-c-Met Fab on IgG1/IgG4 hybrid TFc 39E glycoform 4
B5: Onartuzumab-23 (antibody)
heavy: EVQLVESGGGLVQPGGSLRLSCAASGYTFTSYWLHWVRQAPGKGLEWVGMIDPSNSDTRFNPNFKDRFTISADTSKNTAYLQMNSLRAEDTAVYYCATYRSYVTPLDYWGQGTLVTVSSASTKGPSVFPLAPSSKSTSGGTAALGCLVKDYFPEPVTVSWNSGALTSGVHTFPAVLQSSGLYSLSSVVTVPSSSLGTQTYICNVNHKPSNTKVDKKVEPKSCDKTHTCPPCPAPELLGGPSVFLFPPKPKDTLMISRTPEVTCVVVDVSHEDPEVKFNWYVDGVEVHNAKTKPREEQYQSTYRVVSVLTVLHQDWLNGKEYKCKVSNKALPAPIEKTISKAKGQPREPQVYTLPPSREEMTKNQVSLSCAVKGFYPSDIAVEWESNGQPENNYKTTPPVLDSDGSFFLVSKLTVDKSRWQQGNVFSCSVMHEALHNHYTQKSLSLSPGKGGGGSGGGGSGGGGSGGGGSGGGGSGGGGSGGGGSGGGGSCPPCPAPELLGGPSVFLFPPKPKDTLMISRTPEVTCVVVDVSHEDPEVKFNWYVDGVEVHNAKTKPREEQYQSTYRVVSVLTVLHQDWLNGKEYKCKVSNKALPAPIEKTISKAKGQPREPQVYTLPPSREEMTKNQVSLWCLVKGFYPSDIAVEWESNGQPENNYKTTPPVLDSDGSFFLYSKLTVDKSRWQQGNVFSCSVMHEALHNHYTQKSLSLSPGK
light: DIQMTQSPSSLSASVGDRVTITCKSSQSLLYTSSQKNYLAWYQQKPGKAPKLLIYWASTRESGVPSRFSGSGSGTDFTLTISSLQPEDFATYYCQQYYAYPWTFGQGTKVEIKRTVAAPSVFIFPPSDEQLKSGTASVVCLLNNFYPREAKVQWKVDNALQSGNSQESVTEQDSKDSTYSLSSTLTLSKADYEKHKVYACEVTHQGLSSPVTKSFNRGEC
notes: Monovalent tandem Fc antibody: onartuzumab anti-c-Met Fab on IgG1 TFc 23

The record followed here is US20140302035A1 (MERRIMACK PHARMACEUTICALS, published 2014).

For this assay, the target named is T1, cMet-his (Homo sapiens (Human), UniProt P08581 25-933).
T1 construct: also called his tagged cMET; Recombinant polyhistidine-tagged c-Met
The assay can be described thus: BLI (ForteBio Octet), antibody loaded on Protein A tips, his tagged cMET in solution, 1:1 model. As for the experimental part:
Protocol: All reagents are equilibrated and samples are brought to room temperature. Protein A sensor tips (Fortebio, #18-5010) are hydrated for 10 min in 1×PBS. Kinetic assays are run using the Octet software and procedure per manufacturer's instruction. Assay steps typically include: 1-2 min of equilibration in 1×PBS, 4 min of antibody loading (conc: 50 μg/mL in 1×PBS), 1-2 min of baseline stabilization, 4 min of antibody:antigen association, and 4 min of antibody:antigen dissociation. 1×PBS is used as the matrix throughout. Data are analyzed with Octet Data Analysis software, processed, and fit to the curve using 1:1 binding model to determine kinetic parameters (Kₐ, Kₒₙ and Koff)
For the molecule B1, binding was put at a Kd of 1.3 nM. As for B2, the figure is 1.29 nM. The same measure for B3: 1.26 nM. As for B4, the figure is 1.25 nM; as for B5, 1.24 nM.

A word on the Kd: it is a measure of binding affinity in units of concentration.
